Source: US20120231065A1

Target: GCSF receptor (rat, endogenous, on neurons / in cortex tissue) (rat) (UniProt D4A3R0)
Assay: cell-based or functional assay

UniProt D4A3R0, sequence (D4A3R0 entry or part of it limits assumed, form in doubt): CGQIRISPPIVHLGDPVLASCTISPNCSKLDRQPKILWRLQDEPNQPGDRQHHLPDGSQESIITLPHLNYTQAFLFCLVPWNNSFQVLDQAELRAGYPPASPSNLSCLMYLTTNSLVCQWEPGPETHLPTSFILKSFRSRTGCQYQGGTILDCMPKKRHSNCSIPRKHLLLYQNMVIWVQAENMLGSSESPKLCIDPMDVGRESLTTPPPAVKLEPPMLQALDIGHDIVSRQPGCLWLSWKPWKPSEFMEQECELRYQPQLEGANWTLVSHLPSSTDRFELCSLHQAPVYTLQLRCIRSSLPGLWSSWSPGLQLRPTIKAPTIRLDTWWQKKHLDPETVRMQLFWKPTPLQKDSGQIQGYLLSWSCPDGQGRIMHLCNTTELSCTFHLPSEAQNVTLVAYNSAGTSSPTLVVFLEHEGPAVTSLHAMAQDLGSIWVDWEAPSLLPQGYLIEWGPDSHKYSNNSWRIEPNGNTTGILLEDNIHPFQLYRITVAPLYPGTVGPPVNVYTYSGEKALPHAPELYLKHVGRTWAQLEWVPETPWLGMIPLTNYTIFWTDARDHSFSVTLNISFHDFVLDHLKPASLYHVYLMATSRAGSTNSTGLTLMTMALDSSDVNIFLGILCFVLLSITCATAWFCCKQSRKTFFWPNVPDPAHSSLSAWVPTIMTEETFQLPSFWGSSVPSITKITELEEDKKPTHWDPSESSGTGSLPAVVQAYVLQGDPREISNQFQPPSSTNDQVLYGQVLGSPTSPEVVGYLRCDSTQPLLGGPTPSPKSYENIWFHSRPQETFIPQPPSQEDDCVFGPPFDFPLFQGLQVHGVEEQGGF

STAT3 nuclear translocation in neurons of the penumbra, percent of STAT3 positive neurons from all neurons (GCSF treated rats versus untreated controls) (percent of STAT3 positive neurons): 34.4
Substance: recombinant human GCSF, Neupogen (Amgen) (from UniProt P09919 31-207) (ligand)
